Measured values taken from patent US20170218059A1.

Target: histones
Assay: ELISA

B1: murine IMMU-H4 antibody (antibody, V domains shown)
VH: QVQLQQSGAELVRPGASVKLSCTASGFNIKDDYLHWVKQRPEQGLEWIGWIDPENGDTEYASKFQGKATITADTSSNTAYLQLSSLTSEDTAVYYCSSPLVHLRTFAYWGQGTLVTVS
VL: DIQLTQSPASLAVSLGQRATISCRASESVDSYDNSLHWFQQKPGQPPKLLIYLASNLESGVPARFSGSGSRTDFTLTIDPVEADDAATYYCQQNNEDPWTFGGGTKLEIKR
How did the Kd turn out when B1 was run?
Its Kd is 6.6 nM.
